Laboratory results from US20240174744A1 (SCIRHOM, published 2024).

Target: T1, dog iRhom2 full length wild type, C-terminally tagged with 3 consecutive copies of the T7 epitope (dog, UniProt Q00M95 1-827)
T1 construct: whole, on cells; also called Dog-iR2-FL-WT-T7
T1 sequence: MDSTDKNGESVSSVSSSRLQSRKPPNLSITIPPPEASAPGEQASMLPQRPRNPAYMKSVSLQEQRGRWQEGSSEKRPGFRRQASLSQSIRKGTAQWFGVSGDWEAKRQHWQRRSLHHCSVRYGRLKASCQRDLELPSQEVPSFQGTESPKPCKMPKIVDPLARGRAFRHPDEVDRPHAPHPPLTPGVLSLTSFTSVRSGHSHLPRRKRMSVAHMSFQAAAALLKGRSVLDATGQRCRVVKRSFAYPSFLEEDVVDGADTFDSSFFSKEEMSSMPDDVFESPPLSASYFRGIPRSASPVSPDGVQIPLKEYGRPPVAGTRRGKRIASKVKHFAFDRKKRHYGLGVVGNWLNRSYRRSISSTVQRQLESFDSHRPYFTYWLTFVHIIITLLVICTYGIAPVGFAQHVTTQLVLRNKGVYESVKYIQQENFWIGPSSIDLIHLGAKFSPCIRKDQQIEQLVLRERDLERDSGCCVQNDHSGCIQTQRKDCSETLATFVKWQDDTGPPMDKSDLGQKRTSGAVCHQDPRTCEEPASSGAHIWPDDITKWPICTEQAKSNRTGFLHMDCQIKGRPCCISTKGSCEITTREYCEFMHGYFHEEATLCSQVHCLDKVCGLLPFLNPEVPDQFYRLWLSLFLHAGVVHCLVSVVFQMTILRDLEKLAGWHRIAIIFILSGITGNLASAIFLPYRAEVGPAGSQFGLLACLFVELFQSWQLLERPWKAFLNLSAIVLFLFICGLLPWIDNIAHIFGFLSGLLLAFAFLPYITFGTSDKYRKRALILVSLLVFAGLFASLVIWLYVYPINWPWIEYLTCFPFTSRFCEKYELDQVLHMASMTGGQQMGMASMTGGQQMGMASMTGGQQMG
Assay: FACS, MEF-DKO-dog-iR2-FL-WT-T7 cells, 3 µg/ml
Protocol: In brief, immortalized MEF-DKO-EV control cells, MEF-DKO-rhesus-iR2-FL-WT-T7 cells, MEF-DKO-cyno-iR2-FL-WT-T7 cells, MEF-DKO-dog-iR2-FL-WT-T7 cells and MEF-DKO-rabbit-iR2-FL-WT-T7 cells, as well as their respective iRhom1 counterparts, were harvested with 10 mM EDTA in PBS, washed and resuspended in FACS buffer (PBS, 3% FBS, 0.05% sodium azide), and seeded in Nunc U-bottom 96-well plates (Thermo Fisher Scientific, USA) at approximately 3×10⁵ cells per well. To pellet cells and remove supernatants, the plates were centrifuged at 1,500 rpm and 4° C. for 3 minutes. For primary staining, cells were resuspended in 100 μl per well of either FACS buffer alone (controls), mouse monoclonal anti-T7 IgG (Merck Millipore, USA) at 3 μg/ml FACS buffer or the antibodies of the present disclosure also at 3 μg/ml FACS buffer and incubated on ice for 1 hour. Afterwards, plates were centrifuged at 1,500 rpm and 4° C. for 3 minutes and washed twice with 200 μl per well of FACS buffer. For secondary staining, cells were spun down and resuspended in 100 μl per well of PE-conjugated goat anti-mouse IgG F(ab′)2 detection fragment (Dianova, Germany) diluted 1:100 in FACS buffer. Protected from light, the cell suspensions were incubated on ice for 1 hour. […] Finally, cells were resuspended in 150 μl per well of FACS buffer and analyzed using a BD Accuri™ C6 Plus flow cytometer (Becton Dickinson, Germany).

B1: antibody 3 (antibody, V domains shown)
VH: QVTLKESGPGILQPSQTLSLTCSFSGFSLTTFAMGIGWVRQPSGKGLEWLAHIWWDGEKYNNPVLKSRLTISKDTSKNQVFLRIANVDTPDTATYYCARISSIYYIIDNWGQGTSVTVSS
VL: DIVLTQSPATLSVTPGHSVSLSCRASQSISNNLHWYQKKSHESPRLLIKYVSQSISGIPSRFSGSGSGTDFTLSINSVETEDFGMYFCQQSYNWPLTFGAGTKLELK
notes: Mouse IgG, kappa light chain; also called clone #3; purified antibody 3
  binding result: binds

B2: antibody 5 (antibody, V domains shown)
VH: QVTLKESGPGILQPSQTLSLTCSFSGFSLSTFGMGVGWIRQPSGKGLEWLAHIWWDDEKYYNSALKSRLTISKATSKNQAFLKIANVDTADTATYYCARISNYGSNYWYFNVWGTGTTVTVSS
VL: QVVLTQSPALMSASPGEKVTMTCSAGSSVSCMYWYQQKPGSSPRVLIYDTSNLASGVPARFTGSGSGTSYSLTISRMEAEDAASYYCQQWNSYPLTFGAGTKLELK
notes: Mouse IgG, kappa light chain; also called clone #5; purified antibody 5
  binding result: binds
